Data as given in patent US20160356775.

What was measured:
[1] = molecular target: T1, full length recombinant human ERα protein (Invitrogen), P03372
T1 chain: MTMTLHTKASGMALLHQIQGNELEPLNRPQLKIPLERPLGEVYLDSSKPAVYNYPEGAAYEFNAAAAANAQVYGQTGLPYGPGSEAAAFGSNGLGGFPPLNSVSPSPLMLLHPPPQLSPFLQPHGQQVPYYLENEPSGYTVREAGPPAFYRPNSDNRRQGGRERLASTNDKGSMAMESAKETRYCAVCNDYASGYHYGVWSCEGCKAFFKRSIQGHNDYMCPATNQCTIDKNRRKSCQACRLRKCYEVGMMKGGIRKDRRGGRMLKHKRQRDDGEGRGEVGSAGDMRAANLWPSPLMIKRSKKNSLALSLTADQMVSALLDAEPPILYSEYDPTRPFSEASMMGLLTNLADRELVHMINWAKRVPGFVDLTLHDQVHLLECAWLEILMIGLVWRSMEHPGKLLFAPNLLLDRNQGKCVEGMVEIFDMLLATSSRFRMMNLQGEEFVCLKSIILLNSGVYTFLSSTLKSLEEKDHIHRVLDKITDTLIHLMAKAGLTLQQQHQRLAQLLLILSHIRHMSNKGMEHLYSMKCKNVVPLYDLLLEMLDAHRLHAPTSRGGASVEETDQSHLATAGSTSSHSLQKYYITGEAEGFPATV

[2] = molecular target: T2, GST-recombinant human FoXO3a, O43524
T2 chain: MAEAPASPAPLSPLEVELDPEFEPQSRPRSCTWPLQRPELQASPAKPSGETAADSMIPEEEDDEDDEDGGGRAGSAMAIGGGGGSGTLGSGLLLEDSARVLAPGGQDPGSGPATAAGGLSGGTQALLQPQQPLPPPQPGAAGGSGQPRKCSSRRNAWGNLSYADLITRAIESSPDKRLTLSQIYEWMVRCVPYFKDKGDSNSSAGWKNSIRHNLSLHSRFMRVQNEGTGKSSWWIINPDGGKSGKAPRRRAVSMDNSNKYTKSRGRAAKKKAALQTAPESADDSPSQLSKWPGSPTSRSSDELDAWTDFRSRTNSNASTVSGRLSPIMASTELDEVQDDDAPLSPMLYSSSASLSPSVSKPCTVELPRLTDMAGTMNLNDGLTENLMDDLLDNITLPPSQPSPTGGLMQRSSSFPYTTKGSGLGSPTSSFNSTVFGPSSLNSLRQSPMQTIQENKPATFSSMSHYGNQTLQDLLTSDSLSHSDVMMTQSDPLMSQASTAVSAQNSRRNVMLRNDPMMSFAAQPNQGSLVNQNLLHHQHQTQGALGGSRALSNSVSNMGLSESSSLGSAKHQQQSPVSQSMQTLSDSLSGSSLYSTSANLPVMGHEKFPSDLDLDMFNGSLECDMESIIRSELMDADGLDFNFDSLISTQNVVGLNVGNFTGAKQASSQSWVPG

[3] = molecular target: recombinant PKC (Promega)

B1: recombinant LMTK3 kinase domain (protein)
chain: LSYLQEIGSGWFGKVILGEIFSDYTPAQVVVKELRASAGPLEQRKFISEAQPYRSLQHPNVLQCLGLCVETLPFLLIMEFCQLGDLKRYLRAQRPPEGLSPELPPRDLRTLQRMGLEIARGLAHLHSHNYVHSDLALRNCLLTSDLTVRIGDYGLAHSNYKEDYYLTPERLWIPLRWAAPELLGELHGTFMVVDQSRESNIWSLGVTLWELFEFGAQPYRHLSDEEVLAFVVRQQHVKLARPRLKLPYADYWYDILQSCWRPPAQRPSASDLQLQLTYL
- in vitro phosphorylation followed by in vitro proteasome degradation assay [1]: phosphorylation of ERα by LMTK3 (FIG. 20d) rescued ERα from in vitro proteasome-mediated degradation (FIG. 20e)
- in vitro kinase assay (32P autoradiography) [2]: LMTK3 directly phosphorylates ... FoxO3a
- in vitro kinase assay, PKC phosphorylation of histone [3]: LMTK3 inhibits the ability of PKC to phosphorylate histone
